Here are results for five molecules from patent publication US20030032592A1 (published 2003).

Sequences and labels used below:
B2: Oxysterol liver X receptor alpha (LXR-alpha), amino acids 95-277, Gal4 DNA-binding-domain fusion (bait) (receptor, UniProt P04386 1-147, looked up)
chain: MKLLSSIEQACDICRLKKLKCSKEKPKCAKCLKNNWECRYSPKTKRSPLTRAHLTEVESRLERLEQLFLLIFPREDLDMILKMDSLQDIKALLTGLFVQDNVNKDAVTDRLASVETDMPLTLRQHRISATSSSEESSNKGQRQLTVSNELCSVCGDKASGFHYNVLSCEGCKGFFRRSVIKGAHYICHSGGHCPMDTYMRRKCQECRLRKCRQAGMREECVLSEEQIRLKKLKRQEEEQAHATSLPPRASSPPQILPQLSPEQLGMIEKLVAAQQQCNRRSFSDRLRVTPWPMAPDPHSREARQQRFAHFTELAIVSVQEIVDFAKQLPG
notes: range 1-147;range 95-277; Bait made by PCR from brain cDNA and expressed in yeast from vector pGBTQ as a C-terminal fusion to Gal4 DBD

The target of assay [1] is T1, zyxin, amino acids 323-572, Gal4 activation-domain fusion (prey clone) (yeast (Saccharomyces cerevisiae); human, UniProt P04386 768-881; Q15942 323-572).
T1 construct: range 768-881;range 323-572; Clone from the human brain cDNA library in pACT2
T1 sequence (looked up): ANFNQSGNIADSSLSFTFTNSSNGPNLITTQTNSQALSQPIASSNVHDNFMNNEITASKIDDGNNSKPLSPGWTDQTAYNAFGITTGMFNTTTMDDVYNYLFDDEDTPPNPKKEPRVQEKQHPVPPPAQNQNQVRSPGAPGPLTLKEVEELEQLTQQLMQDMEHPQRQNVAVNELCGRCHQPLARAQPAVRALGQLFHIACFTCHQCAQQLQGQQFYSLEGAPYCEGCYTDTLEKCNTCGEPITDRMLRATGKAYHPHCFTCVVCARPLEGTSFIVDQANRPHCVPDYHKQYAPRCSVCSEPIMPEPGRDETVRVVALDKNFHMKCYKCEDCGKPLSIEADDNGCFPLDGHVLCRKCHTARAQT
The assay is described as follows: yeast two-hybrid; prey clone identified for the bait of the same row (Ex. 4). The text has this: (§1) A total human brain (person) cDNA library cloned into the yeast expression vector pACT2 was purchased from Clontech (human brain […] cDNA, cat. # HL4004AH), transformed into the yeast strain J692 (genotype of this strain: Mat a, ade2, his3, leu2, trp1, URA3::GAL1-1acZ LYS2::GAL1-HIS3 ga14del ga180del cyhR2), and selected for the ability to drive leucine synthesis. In these yeast cells, each cDNA is expressed as a fusion protein with the transcription activation domain of the transcription factor Ga14 (amino acids 768 to 881) and a 9 amino acid hemagglutinin epitope tag. J693 cells (Mat α type) expressing the bait were then mated with J692 cells ([…]) expressing proteins from the brain library. The resulting diploid yeast cells expressing proteins interacting with the bait protein were selected for the ability to synthesize tryptophan, leucine, histidine, and β-galactosidase. DNA was prepared from each clone, transformed by electroporation into E. coli strain KC8 (Clontech KC8 electrocompetent cells, cat. # C2023-1), and the cells were selected on ampicillin-containing plates in the absence of either tryptophane (selection for the bait plasmid) or leucine (selection for the brain library plasmid). DNA for both plasmids was prepared and sequenced by di-deoxynucleotide chain termination method. […]

Assay [2] addresses T2, PSMD11, amino acids 87-422, Gal4 activation-domain fusion (prey clone) (yeast (Saccharomyces cerevisiae); human, UniProt P04386 768-881; O00231 87-422).
T2 construct: range 768-881;range 87-422; Clone from the human brain cDNA library in pACT2; also called proteasome subunit PSMD11
The assay is described as follows: yeast two-hybrid; prey clone identified for the bait of the same row (Ex. 10).
Source text: as §1

The target in assay [3] is T3, Oxysterol liver X receptor alpha (LXR-alpha), amino acids 156-448, Gal4 DNA-binding-domain fusion (bait) (yeast (Saccharomyces cerevisiae), UniProt P04386 1-147; Q13133 156-447).
T3 construct: range 1-147;range 156-448; Bait expressed in yeast from pGBTQ as a C-terminal fusion to Gal4 DBD
The assay can be described thus: yeast two-hybrid; prey clone identified for the bait of the same row (Ex. 12).
Source text: as §1

Assay [4] has as its target B2. The assay can be described thus: yeast two-hybrid; prey clone identified for the bait of the same row (Ex. 6).
Source text: as §1

For assay [5], the target named is T4, Oxysterol liver X receptor alpha (LXR-alpha), amino acids 257-448, Gal4 DNA-binding-domain fusion (bait) (yeast (Saccharomyces cerevisiae), UniProt P04386 1-147; Q13133 257-447).
T4 construct: range 1-147;range 257-448; Bait expressed in yeast from pGBTQ as a C-terminal fusion to Gal4 DBD
The assay can be described thus: yeast two-hybrid; prey clone identified for the bait of the same row (Ex. 8).
Source text: as §1

The target of assay [6] is T3, Oxysterol liver X receptor alpha …. The assay can be described thus: yeast two-hybrid; prey clone identified for the bait of the same row (Ex. 9).
Source text: as §1

B1: Oxysterol liver X receptor alpha (LXR-alpha), amino acids 95-156, Gal4 DNA-binding-domain fusion (bait) (receptor, UniProt P04386 1-147, looked up)
chain: MKLLSSIEQACDICRLKKLKCSKEKPKCAKCLKNNWECRYSPKTKRSPLTRAHLTEVESRLERLEQLFLLIFPREDLDMILKMDSLQDIKALLTGLFVQDNVNKDAVTDRLASVETDMPLTLRQHRISATSSSEESSNKGQRQLTVSNELCSVCGDKASGFHYNVLSCEGCKGFFRRSVIKGAHYICHSGGHCPMDTYMRRKCQECRLR
notes: range 1-147;range 95-156; Bait expressed in yeast from pGBTQ as a C-terminal fusion to Gal4 DBD
Consider B1, for which the binding result in assay [1] is “binds”.
With B2, the binding result in assay [2] was “binds”.

B3: CIR, amino acids 226-450, Gal4 activation-domain fusion (prey clone) (other, yeast (Saccharomyces cerevisiae);human, UniProt P04386 768-881, looked up, not shown: small tags and cut ends)
chain: ANFNQSGNIADSSLSFTFTNSSNGPNLITTQTNSQALSQPIASSNVHDNFMNNEITASKIDDGNNSKPLSPGWTDQTAYNAFGITTGMFNTTTMDDVYNYLFDDEDTPPNPKKERKLDRLEKKKKKKDRKKKKFQKSRSKHKKHKSSSSSSSSSSSSSSTETSESSSESESNNKEKKIQRKKRKKNKCSGHNNSDSEEKDKSKKRKLHEELSSSHHNREKAKEKPRFLKHESSREDSKWSHSDSDKKSRTHKHSPEKRGSERKEGSSRSHGREERSRRSRSRSPGSYKQRETRKRAQRNPGEEQSRRNDSRSHGTDLYRGEKMYREHPGGTHTKVTQRE
notes: range 768-881;range 226-450; Clone from the human brain cDNA library in pACT2; also called transcription factor CIR
As for B3, in assay [3], the binding result is recorded as “binds”.

B4: Homer-3, amino acids 182-354, Gal4 activation-domain fusion (prey clone) (other, yeast (Saccharomyces cerevisiae);human, UniProt P04386 768-881, looked up, not shown: small tags and cut ends)
chain: ANFNQSGNIADSSLSFTFTNSSNGPNLITTQTNSQALSQPIASSNVHDNFMNNEITASKIDDGNNSKPLSPGWTDQTAYNAFGITTGMFNTTTMDDVYNYLFDDEDTPPNPKKEEVQWEAEFFALQDSNNKLAGALREANAAAAQWRQQLEAQRAEAERLRQRVAELEAQAASEVTPTGEKEGLGQGQSLEQLEALVQTKDQEIQTLKSQTGGPREALEAAEREETQQKVQDLETRNAELEHQLRAMERSLEEARAERERARAEVGRAAQLLDVSLFELSELREGLA
notes: range 768-881;range 182-354; Clone from the human brain cDNA library in pACT2; The printed GenBank number has one digit too many
As to B4, the binding result in assay [4] is on record as “binds”.

B5: EIF3S1, amino acids 94-254, Gal4 activation-domain fusion (prey clone) (other, yeast (Saccharomyces cerevisiae);human, UniProt P04386 768-881, looked up, not shown: small tags and cut ends)
chain: ANFNQSGNIADSSLSFTFTNSSNGPNLITTQTNSQALSQPIASSNVHDNFMNNEITASKIDDGNNSKPLSPGWTDQTAYNAFGITTGMFNTTTMDDVYNYLFDDEDTPPNPKKEEIKKRLEEPEEPKVLTPEEQLADKLRLKKLQEESDLELAKETFGVNNAVYGIDAMNPSSRDDFTEFGKLLKDKITQYEKSLYYASFLEVLVRDVCISLEIDDLKKITNSLTVLCSEKQKQEKQSKAKKKKKGVVPGGGLKATMKDDLADYGGYDGGYVQDY
notes: range 768-881;range 94-254; Clone from the human brain cDNA library in pACT2; also called translation initiation factor EIF3S1
For the molecule B5, the binding result in assay [5] and in assay [6] was “binds” each time.
